{"source": "paper PMC7910490", "about": "“The biosynthetic pathway of potato solanidanes diverged from that of spirosolanes due to evolution of a dioxygenase” (Nature Communications, 2021)", "proteins": {"B1": {"name": "St7070 (Solanum tuberosum) (protein)", "chain": "MASTKVTIPTIDFFNSELKPNTPQWELTKVQVFEALQEFGCFEAIYNKVPNEIREGMFDTLKEVFDFPLSKLIEYREKPFHIYDGQIPSVPLFGSVYSADLVLPNSVETFANTFWSHGNPNFSNVAKSYFKQLMELNGMVEKMVLESLGLKNYIDEFLNSNVYMSRFTNYKVIKGENENKSGLPSHTDSSYLTIIKQNQNGLQVLYKNGEWIELNHTSPNSYIVLSADALMAWTNDRLTSAQHRVVTTGDKDRFSVQLFSLVNPDYTLKVPKELVDEEHPLMYKPFKMPEYNKYLMLGAKNGLGVKNYCGL"}}, "key": {"[1]": {"substrate": "C[C@H]1CC[C@]2(NC1)O[C@H]1C[C@H]3[C@@H]4CC=C5C[C@@H](O)CC[C@]5(C)[C@H]4CC[C@]3(C)[C@H]1[C@@H]2C", "test": "purified protein, by the assay type", "set-up": "LC-MS of product formation by purified recombinant enzyme; Michaelis-Menten nonlinear regression (ANEMONA)", "conditions": "pH 7.2", "procedure": "(§1) An in vitro enzyme activity assay was performed using 100 μl of reaction mixture containing 100 mM Bis–Tris–HCl (pH 7.2), 5 mM 2-oxoglutarate, 10 mM sodium ascorbate, 0.2 mM FeSO4, 25 μM substrate, and 1 μg purified recombinant proteins as the enzyme. The reaction was initiated by the addition of the enzyme and was carried out at 30 °C for 30 min. The reaction was then stopped by incubation for 2 min at 90 °C. After centrifugation, 20 μl of supernatant was diluted with 180 μl methanol and filtered through 0.2-μm nylon membrane filters (Acrodisc, Waters). An aliquot (2 μl) was analyzed using LC–MS, as described in “Feeding experiments” above. We determined the kinetic parameters of the recombinant DPS and St7070 in triplicate assays. The assays were conducted as described above, with minor modifications. Briefly, 0.1 μg purified DPS protein or 0.02 μg purified St7070 were used. […] A 20 μl sample of assay mixture was diluted with 180 μl methanol and filtered through 0.2-μm nylon membrane filters (Acrodisc, Waters). An aliquot (2 μl) was analyzed using LC–MS, as described above. The kinetic parameters were determined by nonlinear regression, using the ANEMONA program. Supplementary Fig. 21| Enzyme kinetics of purified recombinant DPS and St7070 with a-solamarine and (22S,25S)-spirosol-5-en-3b-ol. […]"}, "[2]": {"substrate": "C[C@H]1CC[C@]2(NC1)O[C@H]1C[C@H]3[C@@H]4CC=C5C[C@@H](O[C@@H]6O[C@H](CO)[C@H](O)[C@H](O[C@@H]7O[C@H](CO)[C@@H](O)[C@H](O)[C@H]7O)[C@H]6O[C@@H]6O[C@@H](C)[C@H](O)[C@@H](O)[C@H]6O)CC[C@]5(C)[C@H]4CC[C@]3(C)[C@H]1[C@@H]2C", "test": "purified protein, by the assay type", "set-up": "LC-MS of product formation by purified recombinant enzyme; Michaelis-Menten nonlinear regression (ANEMONA)", "conditions": "pH 7.2", "procedure": "as §1"}}, "data": [{"protein": "B1", "values": [{"measurement": "Km", "setting": "[1]", "value": "19.6 ± 0.056", "unit": "µM"}, {"measurement": "Km", "setting": "[2]", "value": "1.7 ± 0.24", "unit": "µM"}]}]}
